The text below walks through data of CN113683687A (EXCYTE BEIJING PHARMACEUTICAL TECH DEVELOPMENT CO LTD, dated 2021).

This assay addresses T1, 新型冠状病毒(2019-nCoV)Spike蛋白 (全长三聚体S蛋白) (新型冠状病毒(2019-nCoV), UniProt P0DTC2 16-1213).
T1 construct: also called 病毒S蛋白
Description: Octet Blitz (BLI), scFv-Fc, apparent affinity. In general terms: BLI is a label-free optical method that tracks binding on a fibre tip over time.

Changes are numbered by the printed parent chain.

B1: CS1 (Fc fusion)
VH: QVQLQQSGAEVKKPGSSVKVSCKASGGTFSSYAISWVRQAPGQGLEWMGGIIPIFGTANYAQKFQGRVTITADESTSTAYMELSSLRSEDTAVYYCARDRGVGRGYSYGFLPLDYWGQGTLVTVSS
VL: DIQMTQSPLSLPATPGEPASISCRSSQSLLHSDGYSYLHWYVQKPGQSPQLLISADSNRASGVPGRFSGSGSGTDFTLKISRVEAEDVGVYYCMQALQTPWTFGQGTKLDIK
notes: also called 抗体CS1
With B1, the Kd is 1.2 nM.

B2: CS2 (Fc fusion)
VH: EVQLVQSGAEVKKPGASVKVSCKASGGTFSSYAISWVRQAPGQGLEWMGGIIPIFGTANYAQKFQGRVTITADESTSTAYMELSSLRSEDTAVYYCARGSGDYGMDVWGQGTTVTVSS
VL: QSALTQPASVSGSPGQSITISCTGTSSDVGGYNYVSWYQQHPGKAPKLVISEVRNRPSGVSNRFSGSKSGNTASLTISGLQAEDEADYYCSSYTTRDTRVFGGGTQLTVL
notes: also called 抗体CS2
On to B2, for which the Kd is 2.1 nM.

B3: CS3 (Fc fusion)
VH: B2 VH with A16S, E74K
VL: B2 VL with G31L, V49M, I50V, R54S, Q106K, L107V
notes: also called 抗体CS3
On to B3, for which the Kd was 23.2 nM.

B4: CS7 (Fc fusion)
VH: B2 VH with A16S, F55L, T57I, E74K, G104S, T113L
VL: B2 VL with T5A, S36A, V49M, S51Y, R54S, Q106K
notes: also called 抗体CS7
For the molecule B4, the Kd was determined as 12.3 nM.
